2 substances from article PMC11281603 can be followed below.

For the assay, the target named is polymeric Ig receptor (pIgR) fused to the FLAG tag (UniProt P01833). The assay is described as follows: flow cytometry on cells. Background: A flow cytometer gives signals particle by particle.
Sequence of UniProt P01833 (P01833 19-764): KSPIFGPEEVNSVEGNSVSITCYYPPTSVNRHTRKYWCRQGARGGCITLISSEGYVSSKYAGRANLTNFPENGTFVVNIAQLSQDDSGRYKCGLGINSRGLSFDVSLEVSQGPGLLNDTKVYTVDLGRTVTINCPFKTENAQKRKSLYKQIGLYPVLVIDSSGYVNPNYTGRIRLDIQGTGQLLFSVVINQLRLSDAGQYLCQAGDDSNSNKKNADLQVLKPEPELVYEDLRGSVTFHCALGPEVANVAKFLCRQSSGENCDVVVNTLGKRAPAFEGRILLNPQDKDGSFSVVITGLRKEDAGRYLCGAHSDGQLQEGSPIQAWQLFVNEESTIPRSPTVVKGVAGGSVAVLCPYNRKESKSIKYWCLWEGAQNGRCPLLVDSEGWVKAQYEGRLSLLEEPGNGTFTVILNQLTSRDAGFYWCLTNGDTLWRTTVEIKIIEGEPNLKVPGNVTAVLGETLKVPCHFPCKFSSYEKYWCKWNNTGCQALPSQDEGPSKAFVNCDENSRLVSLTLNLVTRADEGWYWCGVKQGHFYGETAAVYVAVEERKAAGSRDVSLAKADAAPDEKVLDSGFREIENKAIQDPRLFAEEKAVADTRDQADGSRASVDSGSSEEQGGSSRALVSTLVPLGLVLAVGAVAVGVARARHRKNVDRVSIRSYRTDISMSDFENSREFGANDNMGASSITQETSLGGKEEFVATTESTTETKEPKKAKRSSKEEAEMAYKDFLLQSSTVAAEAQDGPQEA

“IgA from human colostrum (from UniProt P01591 23-159) (ligand)” gave a mean percent binding to pIgR-expressing cells, ORF8-expressing cells of 36.9%; a mean percent binding to pIgR-expressing cells, control cells of 59.6%; a percent ORF8 binding left with 10 ug/mL IgA of 18%.
IgM from human serum (ligand): the mean percent binding to pIgR-expressing cells, ORF8-expressing cells was determined as 25.1% and the mean percent binding to pIgR-expressing cells, control cells came to 33.9%.
